Results taken from publication doi:10.1101/2025.10.28.685229.

Legend:
[1] = target: YF17D VLPs containing only E and M proteins (yellow fever virus, strain 17D); test: BLI
[2] = target: YF17D virus particles (live-attenuated YFV 17D) (yellow fever virus, strain 17D); test: BLI

“Fc-tagged LRP8-LBD (LRP8 LA1237 with a C-terminal human IgG Fc) (Fc fusion)” was tested, and the Kd [1] was 300 nM and the Kd [2] was 460 nM.
